In patent publication US20110111454:

Molecular target: T1, IFNα2b[Tn]-FCHASE
T1 chain: VGVTETP

B1: CgtB11168 (FL, N-terminal MalE) (protein)
chain: MSQISIILPTYNVEKYIARALESCINQTFKDIEIIVVDDCGNDKSIDIAKEYASKDDRIKIIHNEENLKLLRARYEGAKVATSPYIMFLDSDDYLELNACEECIKILDMGGGGKIDLLCFEAFITNAKKSIKKLNIKQGKYNNKEFTMQILKTKNPFWTMWAKIIKKDIYLKAFNMLNLKKEIKINMAEDALLYYPLTILSNEIFYLTQPLYTQHVNSNSITNNINSLEANIQEHKIVLNVLKSIKNKKTPLYFLIIYLLKIQLLKYEQNFNKRNINLIYYKINILYQKYQFKWKKFLYNLIP
For B1, the “conversion of the glycopeptide acceptor by capillary electrophoresis” value was “ND^2 (For the CgtB enzyme from the 11168 only very low-level conversion was detectable on the glycopeptide acceptor by capillary electrophoresis <5%.)”.

B2: CgtBOH4384 (FL, N-terminal MalE) (protein)
chain: MFKISIILPTYNVEQYIARAIESCINQTFKDIEIIVVDDCGNDNSINIAKEYSKKDKRIKIIHNEKNLGLLRARYEGVKVANSPYIMFLDPDDYLELNACEECIKILDEQDEVDLVFFNAIVESNVISYKKFDFNSGFYSKKEFVKKIIAKKNLYWTMWGKLIRKKLYLEAFASLRLEKDVKINMAEDVLLYYPMLSQAQKIAYMNCNLYHYVPNNNSICNTKNEVLVKNNIQELQLVLNYLRQNYILNKYCSVLYVLIKYLLYIQIYKIKRTKLMVTLLAKINILTLKILFKYKKFLKQC
Protein B2 has a Specific Activity (mU/mg) on 1 mM IFNα2b[Tn]-FCHASE of 83.5 mU/mg.
